Results: US20120277164A1 (IMPERIAL INNOVATIONS, published 2012)
* marks the point of attachment. Fmoc = O=C(OCC1c2ccccc2-c2ccccc21)*; βAla = NCCC(=O)O

B1: Fmoc(βAla)2-YDHD-NH2 (peptide)
peptide: {Fmoc-βAla-βAla}-YDHD-NH2
SMILES: NC(=O)[C@H](CC(=O)O)NC(=O)[C@H](Cc1c[nH]cn1)NC(=O)[C@H](CC(=O)O)NC(=O)[C@H](Cc1ccc(O)cc1)NC(=O)CCNC(=O)CCNC(=O)OCC1c2ccccc2-c2ccccc21
B2: Fmoc(βAla)2-YDHA-NH2 (peptide)
peptide: {Fmoc-βAla-βAla}-YDHA-NH2
SMILES: C[C@H](NC(=O)[C@H](Cc1c[nH]cn1)NC(=O)[C@H](CC(=O)O)NC(=O)[C@H](Cc1ccc(O)cc1)NC(=O)CCNC(=O)CCNC(=O)OCC1c2ccccc2-c2ccccc21)C(N)=O
B3: Fmoc(βAla)2-YDHC-NH2 (peptide)
peptide: {Fmoc-βAla-βAla}-YDHC-NH2
SMILES: NC(=O)[C@H](CS)NC(=O)[C@H](Cc1c[nH]cn1)NC(=O)[C@H](CC(=O)O)NC(=O)[C@H](Cc1ccc(O)cc1)NC(=O)CCNC(=O)CCNC(=O)OCC1c2ccccc2-c2ccccc21

Target: T1, Gadd45β/MKK7 complex (biotin-hGadd45β with coated GST-MKK7, ELISA format) (human, UniProt O75293 1-160; O14733 1-419, biotinylated (sites not given))
T1 construct: not shown: glutathione S-transferase (GST) fusion partner
T1 sequence (looked up) 1: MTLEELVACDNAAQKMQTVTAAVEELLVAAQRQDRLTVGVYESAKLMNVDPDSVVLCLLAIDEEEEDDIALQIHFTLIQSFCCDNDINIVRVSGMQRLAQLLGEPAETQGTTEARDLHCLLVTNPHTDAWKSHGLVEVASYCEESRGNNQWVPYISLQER
T1 sequence (looked up) 2: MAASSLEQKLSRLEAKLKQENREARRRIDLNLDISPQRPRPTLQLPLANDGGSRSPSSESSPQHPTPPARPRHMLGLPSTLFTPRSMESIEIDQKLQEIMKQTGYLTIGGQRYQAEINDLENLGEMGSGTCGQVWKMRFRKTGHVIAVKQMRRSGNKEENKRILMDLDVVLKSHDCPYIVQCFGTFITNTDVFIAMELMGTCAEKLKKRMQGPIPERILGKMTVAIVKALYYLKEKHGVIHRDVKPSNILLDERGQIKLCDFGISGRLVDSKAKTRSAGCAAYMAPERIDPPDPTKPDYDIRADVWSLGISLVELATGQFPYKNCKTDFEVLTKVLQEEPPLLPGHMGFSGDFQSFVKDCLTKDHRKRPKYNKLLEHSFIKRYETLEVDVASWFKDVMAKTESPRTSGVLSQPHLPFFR
Assay: competition ELISA; coated GST-MKK7, biotin-hGadd45β; single dose

Row | % Inhibition of Gadd45β-MKK7 binding | Binder
1 | 23% | Ac-YEHF-NH2 [Ac-YEHF-NH2]
2 | 19% | Ac-YDRF-NH2 [Ac-YDRF-NH2]

Target: T1, Gadd45β/MKK7 complex (biotin-hGadd45β …)
Assay: competition ELISA; coated MKK7 42 nM, biotin-hGadd45β 21 nM, competitor 42 nM nominal

Row | % Inhibition of Gadd45β-MKK7 binding | Binder
3 | 99% | {Fmoc-βAla-βAla}-YDHF-NH2 (also called Fmoc-LTP1) [Fmoc(βAla)2-YDHF-NH2]
4 | 0% | B1
5 | 15% | B2
6 | 44% | B3

Target: T1, Gadd45β/MKK7 complex (biotin-hGadd45β …)
Assay: competition ELISA; coated GST-MKK7, biotin-hGadd45β; single dose
Remark: another data set of the same source

Row | % Inhibition of Gadd45β-MKK7 binding | Binder
7 | 35% | Ac-YDKF-NH2 [Ac-YDKF-NH2]
8 | 23% | Ac-YDKW-NH2 [Ac-YDKW-NH2]
9 | 75% | Ac-WEHW-NH2 [Ac-WEHW-NH2]
10 | 69% | Ac-WERW-NH2 [Ac-WERW-NH2]
11 | 36% | Ac-WEHF-NH2 [Ac-WEHF-NH2]
12 | 52% | Ac-YEHF-NH2 [Ac-YEHF-NH2]
13 | 59% | Ac-YERW-NH2 [Ac-YERW-NH2]
14 | 27% | Ac-YEKW-NH2 [Ac-YEKW-NH2]
15 | 45% | Ac-YDRF-NH2 [Ac-YDRF-NH2]
16 | 64% | Ac-YEHW-NH2 [Ac-YEHW-NH2]
17 | 29% | Ac-WERF-NH2 [Ac-WERF-NH2]
18 | 43% | Ac-YDRW-NH2 [Ac-YDRW-NH2]
19 | 64% | Ac-YEKF-NH2 [Ac-YEKF-NH2]
20 | 58% | Ac-YDHW-NH2 [Ac-YDHW-NH2]
21 | 65% | Ac-WEKW-NH2 [Ac-WEKW-NH2]
22 | 65% | Ac-WEKF-NH2 [Ac-WEKF-NH2]
